# Test results published in the DeepSol protein solubility set.
# Assay: soluble on expression in E. coli; label from the status in PepcDB or PDB records
row,Sequence,soluble on expression in E. coli
1,MEGQQVILHLPLSQKGPFWTWEPSAPRTLLQVLQDPALKDLVLTCPTLPWHSLILRPQYEIQAIMHMRRTIVKIPSTLEVDVEDVTASSRHVHFIKPLLLSEVLAWEGPFPLSMEILEVPEGRPIFLSPWVGSLQKGQRLCVYGLASPPWRVLASSKGRKVPRHFLVSGGYQGKLRRRPREFPTAYDLLGAFQPGRPLRVVATKDCEGEREENPEFTSLAVGDRLEVLGPGQAHGAQGSDVDVLVCQRLSDQAGEDEEEECKEEAETQSGSCCPSTSLAVSWRRLEHHHHHH,not soluble
2,MEGTLSFVSGFAPAVYRRELFRHRCVTTAPEARAWPRLGLLRANSGARLSRVDITPEIYKRLVSMAKRTEGNFSAVAGAILESYLTAATNRDLRAVIFDMDGVLCDSERLSRAAGVEYFRRYHGVWPTEKDFADFAGTGEAAFLSGVARRYSVKDFDVNKAKEGFFNIYVNEYVSALEPFEGVREFIQQIKTMGLKTALASSADAIKVHANLSAIGFERDMFDFVTRSDEIANKKPAPDIFLAAAEGLGVPPESCVVIEDAPAGVLAAKRARMRCVAVATSVSAQLLWDAGADIVRPAPQYIMLDDIVITDDADASAPASASQE,soluble
3,MEGVDPAVEEAAFVADDVSNIIKESIDAVLQNQQYSEAKVSQWTSSCLEHCIKRLTALNKPFKYVVTCIIMQKNGAGLHTAASCWWDSTTDGSRTVRWENKSMYCICTVFGLAI,soluble
4,MEHLRRFDRVAGAVTQAMREGRIGFSLQQVNAVDDTGEVLYSECLGRLVERDGAVRTSEEFTAFLEASGRVASFDRYMVGLAFEWLDCNPSGVLGCDISAGNIFDENTWSELYDLLSRNREMASRLVLEITECLPLATLPTAAEFIEGARALGYRIALDSFGTGHSTPESLLSVPVDIVKLDAFFIGRGQGVGKGKGFLHHLVGLASCVAPTVIIEGIETYGQLEAVKKAGATHVQGFLLSEPTLYPVYCGQPAPLPAAKPRSAGSRQLHS,not soluble
5,MEHSLPPYRLRRSPRAKYLRLLIRPDGIEVVVPTGLSDATVLAFVRQHGGWAQARLEELLARLAKLRQGQAERFPAEGGSVPLEGRETPLFIEETGGSRIRVSLEDQGLRLILPRTCGADRDRYVRDALFGWMKRRLPGRVTELIERHAPLHGLYPRQLRIKSMRTRWGSCGPANDINLNWLLGLAPLSVLEYVVVHELCHIRHRNHSRDFWELVAAHLPDWRQERQWLKAHGGGLIQRFDPAFRLEHHHHHH,soluble
6,MEICADELKKVLNTVVNKHKDLKTHGFTLESCRSMIALMDTDGSGKLNLQEFHHLWNKIKAWQKIFKHYDTDQSGTINSYEMRNAVNDAGFHLNNQLYDIITMRYADKHMNIDFDSFICCFVRLEGMFRAFHAFDKDGDGIIKLNVLEWLQLTMYA,soluble
7,MEIIGGKEVSPHSRPFMASIQYGGHHVCGGVLIDPQWVLTAAHCQYRFTKGQSPTVVLGAHSLSKNEASKQTLEIKKFIPFSRVTSDPQSNDIMLVKLQTAAKLNKHVKMLHIRSKTSLRSGTKCKVTGWGATDPDSLRPSDTLREVTVTVLSRKLCNSQSYYNGDPFITKDMVCAGDAKGQKDSCKGDAGGPLICKGVFHAIVSGGHECGVATKPGIYTLLTKKYQTWIKSNLVPPHTN,soluble
8,MEIIKIDSHKDIEQQEDSVLVLGYFDGLHRGHKELFNQAREIAQKMQLKIVVLTFPESPQLAFTRFEPDLLNHINYPEKRYCKFAEYGVDCLYLTDFTSSFAKISSDDFIKNYIKALKAKAVVMGFDYKFSHSKANSDYLKHHFAGQVITVPEVQYEGKKISSTRVRQLIKQGDMTQVNRLLGYEFSTRGIVVHGDARGRTIGFPTANLAPLDRTYLPADGVYVADVIVGRKRYRSMTSIGKNITFGGTELRLEANIFDFDDDIYGETIEIFWLNKIREMVKFNSVNDLVEQLKSDKEIAINWGKS,not soluble
9,MEILIATGRLAENTVRKAAGEKADVLVADIDIAAFITPKKLTRAFEEAGLSKKYDLILLPGLVPGDFSKVSDELDCKIRLGPKHAYDLGFVLRFAEEVEFSVKVPACELLADVRKEEALELIREAEEEAVSPLSLRGVKLGGNSRMKVMGEIVGAAELNPADLEIKIEAFIARGADIIDLGATLNTLPGQVRSTVFLAKSLTDIPISIDTLDPELIKEGIEAGADLVLSLNSTNMETAGSVVAKAGVAAVIIPDEGNSLESLVNNIESARRLGIERIIADPILDPVGHNITESIVRYHEFHRRYPDIPLFFGAGNVTELMDVDTIGVNATLCGIGAETGASILFTPEYSDKAQGSIGELKKASEMMQLCRIRESSPKDLGIDLLFIKEKRKRPDSPLPKKVITARASKNWRQDPAGPIRVRIVPDKINGNGGLIVAEHEKAAIAGESAREVMDTLIELELVSSLDHAAYLGRELEKAELALRFNRSYAQDDIF,not soluble
10,MEINQKREEEDDDEMEWRRDGVKRDSNDFSNYCRQRSLSSDATIMSRQFFVYLIFHVLIDNVIARAPFTRDRPRGLGLLQLPTGMTDERSGPFFPGLYIAGDKAGQKPQTVPDVSLPGQTASFTGRSAFNPFTHMVSAVYTEDLVDAWGAGFAVNGVNNHGLNVRKNFDAFADAPLSSSDGMYQPFLSAASIGSEYDFSKIREVSGNFNLPIPGVNELFDFDGRFMVKGGGNGILNSAMEFPLTLSDPNERAPYTFKYLNYMADRHMHYGHVVPNVNLFVVGKDKIMERLMQNRLNPTMVG,not soluble
11,MEIRKKLVDPSKYCIKCPYTMNPEFITVHNTYNDATAENEVAYMIRNDNQVSFHIAVDDKEAVQGIPLERNAWHTGDGNGNGNRKSIGVEICYSLSGGDRYYKAEDNAAIVVAQLMKQYNIPIKKVRTHQSWSGKYCPHRMLAEGRWNNFIERVQNAYNGDGKVTPTLIPPSTNGTGIAYIEGNGINLRKGLGTGYGVIRQLGKGESYEVWGQSNGWLNLGGNQWIYNDSSYIRYTGESTPTSSQSVNNGVGIVTITADVLRVRKGPGTNYDIVKNVYQGEQYQSWGYRDGWYNVGGDQWVSGEYVKFED,not soluble
12,MEIRWMKSFVAVAEELNYGRAAEVLHIAQPAVSQQVQQLEKRLGVKLFDRTTRSVRLTAAGERFLQPCKDALAGIVRAVDAAVIADPAVEGRVRVGFSGAYGQTELSSLARSVRRRYPLIDLVLEGATVSGQILDEIWEGQLDLGIVSDAVSHPHVLTRQISVEYLSALLPSDHPLAERKSIDLAELRDETFVANPAATGSTLRRDLLAACRDAGFTPNIVQETTDGIVLTALVAAGVGVALVPGDVQTYPNRVVLVPLDAGRYEVRAALAWSDRPVSPVVQTVLDLAAEVLPSPDALAVEQ,not soluble
13,MEITKTDLFYNISEQQQAEMMHCFKTYTRTYKSGEVICFYDDNNIGVGIIESGSARVIHFLPNGTQTILEQLCRGDLFGQLFYHYACPESISLEATCDCVVRFIDYEHIIKRCSKACPHHSQLVNNILVIISDKTRSICEHLEVLSGRTIRDRLNNYFEILSSKSGSNTFKLPFTMTALADYLSVDRSAMSRELKKMKDEGLIQTNKGIVTINR,not soluble
14,MEIVRTKQFSLKPMDSEEAVLQMNLLGHSFYVYTDAETNGTNIVYSRKDGKYGLIETNLEHHHHHH,not soluble
15,MEKENTNGGSVYVTVDGHFKPVHVSMKGTGEKGFLEFMLEDVEKALKETEMPVIGMMYYNVPDMGIVPHLWEGNNDDYLQRLEKAMDGHGIKLHRYLRLSEVVYCL,not soluble
16,MEKFVLSLDEGTTSARAIIFDRESNIHGIGQYEFPQHYPRPGWVEHNPEEIWDAQLRAIKDAIQSARIEPNQIAAIGVTNQRETTLVWDKDGKPLYNAIVWQCRRTAEMVEEIKREYGTMIKEKTGLVPDAYFSASKLKWLLDNVPGLREKAEKGEVMFGTVDTFLIYRLTGEHVTDYSNASRTMLFNIKKLDWDDELLELFDIPESVLPEVRESSEVYGYTKKELLGAEIPVSGDAGDQQAALFGQAAFEAGMVKATYGTGSFILVNTDKMVLYSDNLLTTIAWGLNGRVSYALEGSIFVTGAAVQWLRDGIKIIKHASETEELATKLESNEGVYFVPAFVGLGAPYWDQFARGIIIGITRGTGREHLARATLEAIAYLTRDVVDEMEKLVQIKELRVDGGATANDFLMQFQADILNRKVIRPVVKETTALGAAYLAGLAVDYWADTREIAELWKAERIFEPKMDEKTRERLYKGWKEAVKRAMGWAKVVDSAKSN,soluble
17,MEKKIEKVRQFYTALAQGDFETVGALLSDDLVWHQPGQGALSGTYNGKQNVFAHLERMAQLSNGTFAIDQVDYVTDNGNLVAAAIAFAVSANGHSIEMKGVDLFNFENGFIKKVWLFSERIEEESRFWTALAQGC,not soluble
18,MEKKITLIPPPEFVQYVGGHFEEVGKEFMQYFIEIGNLKSNETVLDVGCGIGRMAVPLMNYLSDDGTYYGFDLFNKGITWCKNNISTRRNNFHFEHVDIYNQFYNPDGKEDASQYKFPYEDESFDFIFLTSVFTHLLPKELEHYVREIARVLKKDGRCFITFFLINPESSYYLNAGLSPLGFYHQIDNCYVLNKDIPNFAVAYPEEDIRTLLNKYGLEMQTPPHYGSWCGRTEHTSYQDIILAQKLEHHHHHH,not soluble
19,MEKPVFYLDRVGEENTEAVIGAAAKRAAELGISHIVVASTSGKTALKMAEAVKGSNIKVIGVSHQYGQKEKGEWEVGEEYRKKLEELGAVITTQSHMFSGIERSITKKFGGYSRIEVISDTLRSLFGKGFKVAIEVAIMAADSGHIPVSDDTEIIAIGGTRWGADVALVLRPAHSNDFFSLQVREIIAMPRAKEDLEHHHHHH,soluble
20,MEKREFPVSDRIFPEVSIPYGDKSTKAMQITCACCGAVAYFPHQTGVNRKPPIAATQHFQNKGWVVGGNPRKDFCPIHAAPAKRKGQKAMVDTVATIADKPREMSREDRRIINDKLDEVYAKDAYKSPWTDSAVAKDLGVPRDWVAQVRDQFFGPAGSNPLYDEFLKETKLVEGAFLACEEATARAEKAAADQRRAHGDLCKAMDSYRVLARKVEREISR,not soluble
21,MEKYIHSVEDYHRLISYLENNLNYEDSVVNHVIYVIAKTGMRYGEIIGLTNNDTSLDEHYLHTYKRYNTSTWKWTNAKNESSKRYIPIDDKIVAALSNMIKERERINSLLRIKNKEEFLFFHYGLEHGIPSVATVNKALKKILKKLDIEPIITTKGLRHTYGSYLLHNNIDMGVVARILGHKDIQMLIQVYGHTLTEKIDKEFKEVEQIMNRILEHHHHHH,not soluble
22,MEKYQALLANNVENTAKEALHQLAYTGREYNNIQDQIETISDLLGHSQSLYDYLREPSKANLTILENMWSSVARNQKLYKQIRFLDTSGTEKVRIKYDFKTSIAGPSLILRDKSAREYFKYAQSLDNEQISAWGIELERDKGELVYPLSPSLRILMPISVNDVRQGYLVLNVDIEYLSSLLNYSPVRDFHIELVKHKGFYIASPDESRLYGDIIPERSQFNFSNMYPDIWPRVVSEQAGYSYSGEHLIAFSSIKFVSNEPLHLIIDLSNEQLSKRATRDINDLIQESLEHHHHHH,soluble
